Target: T1, human CD47 on OV10 315 cells (human, UniProt Q08722 19-323)
T1 construct: whole, on cells
Assay: FACS for Fc on YFP-negative OV10 315 cells 24 h after infection with SIRPα-Fc-VV

T1 sequence (Q08722 19-323): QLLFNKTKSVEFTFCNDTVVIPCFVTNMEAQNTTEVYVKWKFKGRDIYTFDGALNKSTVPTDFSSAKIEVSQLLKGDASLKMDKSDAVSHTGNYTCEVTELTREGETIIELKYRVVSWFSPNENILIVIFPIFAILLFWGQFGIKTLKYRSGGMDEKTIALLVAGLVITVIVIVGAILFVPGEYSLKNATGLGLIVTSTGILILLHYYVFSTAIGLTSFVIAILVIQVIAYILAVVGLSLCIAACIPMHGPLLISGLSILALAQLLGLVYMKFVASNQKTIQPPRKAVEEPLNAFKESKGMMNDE

B1: SIRPα-IgG4 Fc with derivative (CV1) of SIRPα ectodomain (Fc fusion)
chain: EEELQIIQPDKSVLVAAGETATLRCTITSLFPVGPIQWFRGAGPGRVLIYNQRQGPFPRVTTVSDTTKRNNMDFSIRIGNITPADAGTYYCIKFRKGSPDDVEFKSGAGTELSVRAKPSAAAPPCPPCPAPEFLGGPSVFLFPPKPKDTLMISRTPEVTCVVVDVSQEDPEVQFNWYVDGVEVHNAKTKPREEQFNSTYRVVSVLTVLHQDWLNGKEYKCKVSNKGLPSSIEKTISKAKGQPREPQVYTLPPSQEEMTKNQVSLTCLVKGFYPSDIAVEWESNGQPENNYKTTPPVLDSDGSFFLYSRLTVDKSRWQEGNVFSCSVMHEALHNHYTQKSLSLSPGK
notes: Secreted by tumor cells transduced with the lentiviral vector pCDH.CMV.SIRPα-Fc.EF1.GFPpuro or infected with SIRPα-Fc-VV; It was never purified; also called SIRPα-Fc; SIRPα-FC
Does B1 bind?
Result: binds

— US20190119379A1 (BAYLOR COLLEGE OF MEDICINE, published 2019)
